{"source": "patent EP4302836A1", "about": "(Danmarks Tekniske Universitet, dated 2024)", "key": {"[1]": {"target": "T1, Myotoxin II from Bothrops asper (Basic phospholipase A2 homolog 2, Uniprot P24605) (Bothrops asper, UniProt P24605 17-137)", "T1 sequence (P24605 17-137, one chain of several)": "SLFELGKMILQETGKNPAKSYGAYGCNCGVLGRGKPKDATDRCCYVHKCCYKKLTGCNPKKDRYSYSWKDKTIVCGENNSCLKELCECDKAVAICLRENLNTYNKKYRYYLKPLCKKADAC", "test": "cell-based or functional assay"}, "[2]": {"target": "T1, Myotoxin II from Bothrops asper (Basic …)", "test": "monoclonal IgG ELISA, dilution series (Fig. 2A legend)"}, "[3]": {"target": "T1, Myotoxin II from Bothrops asper (Basic …)", "test": "expression-normalized capture (ENC) assay, antigen at 10 nM (data not shown)"}}, "data": [{"binder": "TPL0039_05_G08 IgG (antibody, V domains shown) VH: EVQLVESGGGVVQPGRSLRLSCAASGFTFSSYGMHWVRQAPGKGLEWVAVISYDGSNKYYADSVKGRFTISRDNSKNTLYLQMNSLRAEDTAVYYCARTNYDSGDAFDIWGQGTLVTVSS VL: NFMLTQPHSVSESPGKTVTISCTRSSGSIASNYVQWYQQRPGSSPTTVIYEDNQRPSGVPDRFSGSIDSSSNSASLTISGLKTEDEADYYCQSYDSSTVVFGGGTKLTVLG", "values": [{"measurement": "fibroblast viability assay (CellTiter-Glo), toxin:IgG ratio for full neutralization", "setting": "[1]", "result": "1 mol IgG per mol toxin (printed as toxin:IgG 1:1)"}]}, {"binder": "TPL0039_05_A03 IgG (antibody, V domains shown) VH: QVQLVESGGGLAKPGRSLRLSCAVSGFTFSSYGMHWVRQAPGKGLEWVAVISYDGSNKYYADSVKGRFTISRDNSKNTLYLQMNSLRAEDTAVYYCASTLQQLDAFDIWGQGTMVTVSS VL: NFMLTQPHSVSESPGKTITISCTRSSGSIASNYVQWYQQRPGSVPTPVIYEDDRRPSGVPDRFSGSIDSSSNSASLTISGLKTEDEADYYCQSYDSSSVVFGGGTKITVLG", "values": [{"measurement": "fibroblast viability assay (CellTiter-Glo), toxin:IgG ratio for full neutralization", "setting": "[1]", "result": "0.5 mol IgG per mol toxin (printed as toxin:IgG 1:0.5)"}]}, {"binder": "TPL0039_05_F04 IgG (antibody, V domains shown) VH: QVQLVESGGGVVQPGRSPRLSCAASGFTFSSYGMHWVRQAPGKGLEWVAVISYDGSNKYYADSVKGRFTISRDNSKNTLYLQMNSLRAEDTAVYYCAKDLEYSSSSWGQGTLVTVSS VL: NFMLTQPHSVSESPGKTVTISCTRSSGSIASNYVQWFQQRPGSSPTTVIYEDDQRPSGVPDRFSGSIDSSSNSASLTISGLKTEDEATYFCQSYDSSTVVFGGGTKVTVLG", "values": [{"measurement": "binding result", "setting": "[2]", "result": "binds"}]}, {"binder": "TPL0039_05_B04 IgG (antibody, V domains shown) VH: EVQLLESGGGVVQPGRSLRLSCAASGFTFSSYGMHWVRQAPGKGLEWVAVISYDGSNKYYADSVKGRFTISRDNSKNTLYLQMNSLRAEDTAVYYCARVGENEAFDIWGQGTMVTVSS VL: NFMLTQPHSVSESPGKTVTISCTRSSGSIARNYVQWYQQRPGSAPTTVIYEDNQRPSGVPDRFSGSIDSSSNSASLTISGLKTEDEADYYCQSYDSSTVVFGGGTKLTVLG", "values": [{"measurement": "fibroblast viability assay (CellTiter-Glo), toxin:IgG ratio for full neutralization", "setting": "[1]", "result": "0.5 mol IgG per mol toxin (printed as toxin:IgG 1:0.5)"}]}, {"binder": "TPL0039_05_B12 IgG (antibody, V domains shown) VH: EVQLVESGGGVVQPGRSLRLSCAASGFTFSSYGMHWVRQAPGKGLEWVAVISYDGSNKYYADSVKGRFTISRDNSKNTLYLQMNSLRAEDTAVYYCAGWTEGDAFDIWGQGTLVTVSS VL: NFMLTQPHSVSESPGKTVTISCTRSSGSIASNYVQWYQQRPGSAPSTVIYEDNRRPSGVPDRFSGSIDSASNSASLTISGLKTEDEADYYCQSYDSSSVVFGGGTKITVLG", "values": [{"measurement": "fibroblast viability assay (CellTiter-Glo), toxin:IgG ratio for full neutralization", "setting": "[1]", "result": "0.5 mol IgG per mol toxin (printed as toxin:IgG 1:0.5)"}]}, {"binder": "TPL0039_05_F04 scFv (scFv, V domains shown) VH: QVQLVESGGGVVQPGRSPRLSCAASGFTFSSYGMHWVRQAPGKGLEWVAVISYDGSNKYYADSVKGRFTISRDNSKNTLYLQMNSLRAEDTAVYYCAKDLEYSSSSWGQGTLVTVSS VL: NFMLTQPHSVSESPGKTVTISCTRSSGSIASNYVQWFQQRPGSSPTTVIYEDDQRPSGVPDRFSGSIDSSSNSASLTISGLKTEDEATYFCQSYDSSTVVFGGGTKVTVLG", "values": [{"measurement": "binding result", "setting": "[3]", "result": "binds"}]}]}
